From patent publication US20040192900A1

How the values were obtained:
Fc-CD22 [1] = target: Fc-CD22 (UniProt P20273); test: SPR (BIAcore 2000); 2nd mAb on Fc-CD22 without G5/44
Fc-CD22 [2] = target: Fc-CD22 (UniProt P20273); test: SPR (BIAcore 2000); 2nd mAb on Fc-CD22 pre-saturated with G5/44 (competitor G5/44)
Fc-CD22 [3] = target: Fc-CD22 (UniProt P20273); test: SPR (BIAcore 2000); Fc-CD22 pre-saturated with G5/44 (competitor G5/44); combined response of G5/44 and 2nd mAb
Fc-CD22 [4] = target: Fc-CD22 (UniProt P20273); test: SPR (BIAcore 2000); inhibition of 2nd mAb binding to Fc-CD22 by prior saturation with G5/44 (competitor G5/44)

Binding of 2nd mAb without G544 adjusted for background (RU) (Fc-CD22 [1]) | Response 3 (Response 2-1) (RU) (Fc-CD22 [2]) | Response 3 adjusted for OFF rate of G544 (RU) (Fc-CD22 [2]) | Response 2 after 2nd Anti-CD22 mAb (RU) (Fc-CD22 [3]) | Inhibition by G544 (%) (Fc-CD22 [4]) | Substance
29.3 RU | -74.5 RU | 9 RU | 580 RU | 69% | anti-CD22 mAb SHCL-1, Leu 14 (Becton Dickinson) (antibody)
19.3 RU | -81.8 RU | 1.7 RU | 629 RU | 91% | anti-CD22 mAb HD239 (Santa Cruz Biotech) (antibody)

The remaining lines, values behind:

Substance | Binding of 2nd mAb without G544 adjusted for background (RU) (Fc-CD22 [1]) | Response 3 (Response 2-1) (RU) (Fc-CD22 [2]) | Response 3 adjusted for OFF rate of G544 (RU) (Fc-CD22 [2]) | Response 2 after 2nd Anti-CD22 mAb (RU) (Fc-CD22 [3]) | Inhibition by G544 (%) (Fc-CD22 [4])
anti-CD22 mAb To 15 (Dako Corp) (antibody) | 615 RU | 487 RU | 570 RU | 1160 RU | 7%
anti-CD19 antibody BU12 (Celltech, Slough, UK) | – | -83.5 RU | 0 RU | 603 RU | 0%
anti-CD22 mAb 4KB128 (Dako Corp) (antibody) | 739 RU | 652 RU | 736 RU | 1340 RU | 0%
